Holding throughout (assay): holdup assay
What all share (design): key: below the threshold = too weak to quantify, mostly under pKd 3.1 to 4
Settings in all cases: plain residues with an end cap or a label only (N-terminal biotin on a linker: ado-ado)

Assay [1] concerns the target FRMPD2_2, Q68DX3.
In assay [2] the target is SCRIB_2, Q14160.
In assay [3] the target is DLG1_2, Q12959.
Assay [4] addresses T1, PDZRN3_1, Q9UPQ7.
T1 sequence (Q9UPQ7 244-349, limits assumed, looked up): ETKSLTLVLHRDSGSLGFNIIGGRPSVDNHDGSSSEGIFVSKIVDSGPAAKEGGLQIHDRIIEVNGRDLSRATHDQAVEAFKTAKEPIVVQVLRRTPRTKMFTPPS

Assay [5] concerns the target LNX1_2, Q8TBB1.
The target in assay [6] is T2, FRMPD1, Q5SYB0.
T2 sequence (Q5SYB0 52-145, limits assumed, looked up): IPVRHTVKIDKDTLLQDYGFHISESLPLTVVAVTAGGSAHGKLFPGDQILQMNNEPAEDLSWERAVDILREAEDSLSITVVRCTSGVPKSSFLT

Assay [7] deals with T3, DFNB31_1, Q9P202.
T3 sequence (Q9P202 135-233, limits assumed, looked up): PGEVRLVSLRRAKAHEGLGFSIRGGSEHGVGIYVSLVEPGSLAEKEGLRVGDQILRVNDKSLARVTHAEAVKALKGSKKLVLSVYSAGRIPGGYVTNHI

The target in assay [8] is SNX27, Q96L92.
The target in assay [9] is T4, TIAM2, Q8IVF5.
T4 sequence (Q8IVF5 885-986, limits assumed, looked up): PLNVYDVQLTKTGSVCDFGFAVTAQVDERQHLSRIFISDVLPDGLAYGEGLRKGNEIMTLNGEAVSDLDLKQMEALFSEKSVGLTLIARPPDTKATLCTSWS

For assay [10], the target named is T5, MPDZ_10, O75970.
T5 sequence (O75970 1624-1722, limits assumed, looked up): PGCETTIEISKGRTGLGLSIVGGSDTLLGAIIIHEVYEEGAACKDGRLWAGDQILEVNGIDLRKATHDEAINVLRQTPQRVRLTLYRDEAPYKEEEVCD

The target in assay [11] is HTRA1, Q92743.
Assay [12] concerns the target T6, LIN7A, O14910.
T6 sequence (O14910 103-200, limits assumed, looked up): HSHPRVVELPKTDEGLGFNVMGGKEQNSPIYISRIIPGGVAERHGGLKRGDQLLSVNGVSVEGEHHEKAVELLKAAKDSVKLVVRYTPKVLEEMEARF

The target in assay [13] is T7, NHERF3_4, Q5T2W1.
T7 sequence (Q5T2W1 373-468, limits assumed, looked up): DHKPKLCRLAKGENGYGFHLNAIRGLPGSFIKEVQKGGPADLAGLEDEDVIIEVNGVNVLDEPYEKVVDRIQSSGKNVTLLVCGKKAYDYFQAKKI

Assay [14] addresses T8, SIPA1L2, Q9P2F8.
T8 sequence (Q9P2F8 945-1036, limits assumed, looked up): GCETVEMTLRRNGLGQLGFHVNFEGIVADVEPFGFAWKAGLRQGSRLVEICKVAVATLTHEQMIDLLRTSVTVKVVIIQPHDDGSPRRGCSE

In assay [15] the target is DLG4_2, P78352.
Assay [16] concerns the target T9, SYNJ2BP, P57105.
T9 sequence (P57105 8-110, limits assumed, looked up): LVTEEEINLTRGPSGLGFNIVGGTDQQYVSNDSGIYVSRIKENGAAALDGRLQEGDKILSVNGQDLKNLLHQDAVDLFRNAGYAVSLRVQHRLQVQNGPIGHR

The target in assay [17] is MAST2, Q6P0Q8.
The target of assay [18] is T10, LNX2_2, Q8N448.
T10 sequence (Q8N448 334-432, limits assumed, looked up): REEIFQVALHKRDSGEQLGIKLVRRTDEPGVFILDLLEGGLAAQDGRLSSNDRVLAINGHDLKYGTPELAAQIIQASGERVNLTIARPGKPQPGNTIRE

Assay [19] deals with T11, PDZD7_3, Q9H5P4.
T11 sequence (Q9H5P4 857-944, limits assumed, looked up): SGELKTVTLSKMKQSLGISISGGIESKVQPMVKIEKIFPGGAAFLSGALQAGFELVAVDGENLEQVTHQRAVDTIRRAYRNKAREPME

Assay [20] has as its target Inadl_3, Q8NI35.
Assay [21] deals with PTPN3, P26045.
The target of assay [22] is T12, LIN7B, Q9HAP6.
T12 sequence (Q9HAP6 88-185, limits assumed, looked up): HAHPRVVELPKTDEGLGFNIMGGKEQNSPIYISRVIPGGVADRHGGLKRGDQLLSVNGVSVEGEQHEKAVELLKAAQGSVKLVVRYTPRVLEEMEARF

Assay [23] has as its target T13, RAPGEF6, Q8TEU7.
T13 sequence (Q8TEU7 525-625, limits assumed, looked up): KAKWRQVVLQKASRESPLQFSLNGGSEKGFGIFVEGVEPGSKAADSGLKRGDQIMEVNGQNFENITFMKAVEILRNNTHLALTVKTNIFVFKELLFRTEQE

The target in assay [24] is FRMPD3, Q5JV73.

Usually pKd stands for the negative decadic logarithm of the Kd, by convention in mol/L.

Chain of FRMPD2_2, Q68DX3 (Q68DX3 944-1038): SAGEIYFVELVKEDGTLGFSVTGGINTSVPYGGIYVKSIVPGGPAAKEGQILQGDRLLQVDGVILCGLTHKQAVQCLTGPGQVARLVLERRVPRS
Chain of HTRA1, Q92743 (Q92743 360-477): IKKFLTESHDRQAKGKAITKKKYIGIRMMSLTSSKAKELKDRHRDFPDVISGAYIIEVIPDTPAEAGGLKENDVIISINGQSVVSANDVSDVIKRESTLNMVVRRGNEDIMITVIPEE
Chain of DLG4_2, P78352 (P78352 155-259): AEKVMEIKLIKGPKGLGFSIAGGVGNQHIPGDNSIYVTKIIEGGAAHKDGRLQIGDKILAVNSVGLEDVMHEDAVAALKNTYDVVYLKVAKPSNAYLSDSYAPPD
Chain of DLG1_2, Q12959 (Q12959 314-412): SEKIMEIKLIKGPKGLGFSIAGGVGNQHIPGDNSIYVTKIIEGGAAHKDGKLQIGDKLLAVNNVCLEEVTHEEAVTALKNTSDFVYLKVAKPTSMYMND
Chain of Inadl_3, Q8NI35 (Q8NI35 359-469): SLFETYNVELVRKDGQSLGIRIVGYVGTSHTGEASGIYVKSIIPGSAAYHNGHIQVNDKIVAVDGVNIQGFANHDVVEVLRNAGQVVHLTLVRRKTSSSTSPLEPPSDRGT
Chain of SCRIB_2, Q14160 (Q14160 857-960): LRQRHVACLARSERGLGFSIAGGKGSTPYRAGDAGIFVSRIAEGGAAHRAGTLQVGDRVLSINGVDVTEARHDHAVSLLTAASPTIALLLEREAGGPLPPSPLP
Chain of PTPN3, P26045 (P26045 505-587): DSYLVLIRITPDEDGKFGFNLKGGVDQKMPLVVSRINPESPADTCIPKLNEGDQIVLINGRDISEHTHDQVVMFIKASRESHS
Chain of LNX1_2, Q8TBB1 (Q8TBB1 371-470): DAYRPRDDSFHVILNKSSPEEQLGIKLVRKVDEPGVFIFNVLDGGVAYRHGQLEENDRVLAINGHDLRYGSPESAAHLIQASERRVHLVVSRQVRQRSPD
Chain of MAST2, Q6P0Q8 (Q6P0Q8 1099-1202): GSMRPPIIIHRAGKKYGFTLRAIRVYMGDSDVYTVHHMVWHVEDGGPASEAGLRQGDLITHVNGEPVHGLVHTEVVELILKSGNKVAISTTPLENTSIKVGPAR
Chain of FRMPD3, Q5JV73 (Q5JV73 12-100): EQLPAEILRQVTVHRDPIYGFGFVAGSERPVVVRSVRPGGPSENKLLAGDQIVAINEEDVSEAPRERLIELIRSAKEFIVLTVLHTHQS

As for REKKFFCTIL [GNG4, P50150], the pKd result in assay [1] is “below the threshold”; in [2] it was “below the threshold”; in assay [3], 4.3; in [4] it was 4.14; in assay [5], “below the threshold”; in assay [6], “below the threshold”. Moreover, the pKd came to 4.1 in assay [7]; 5.13 in [8]; 3.98 in assay [9]; 4.3 in [10]; 5.48 in assay [11]; 3.6 in assay [12]. The negative-log Kd (pKd) came out at 5.36 in assay [13]; 4.01 in [14]; 3.95 in assay [15]; 4.27 in assay [16]; 5.62 in assay [17]; 4.06 in [18]. Besides, the pKd in assay [19] is 5.44; in assay [20] it was 4.67; in [21] it was 4.47; in assay [22], 3.97; in [23], “below the threshold”; in [24], “below the threshold”.
Turning to ALPLPQSSTC [IGF1R, P08069], the negative-log Kd (pKd) entry is “below the threshold” in assay [1]; “below the threshold” in [2]; 3.5 in assay [3]; “below the threshold” in assay [4]; “below the threshold” in [5]; “below the threshold” in assay [6]. Also, the pKd entry is “below the threshold” in assay [7]; “below the threshold” in assay [8]; “below the threshold” in assay [9]; 3.56 in [10]; 3.69 in [11]; “below the threshold” in assay [12]. In addition, the negative-log Kd (pKd) entry in assay [13] was “below the threshold”; in [14], “below the threshold”; in assay [15], 3.76; in [16] it was 3.67; in assay [17], 4.31; in [18], 3.55. Besides, the pKd result in assay [19] was “below the threshold”; in assay [20], “below the threshold”; in assay [21], “below the threshold”; in [22] it was 3.86; in assay [23], “below the threshold”; in assay [24] it was “below the threshold”.
Turning to TGPWKNETTV [ADGRA1, Q86SQ6], the pKd in assay [1] was 3.57; in assay [2], 4.25; in [3], 5.33; in assay [4] it was 4.07; in [5] it was 3.62; in assay [6] it was “below the threshold”. The pKd in [7] was 3.73; in assay [8], 5.43; in assay [9] it was “below the threshold”; in assay [10], “below the threshold”; in assay [11], 4.26; in assay [12], 3.86. In addition, the pKd entry in [13] was “below the threshold”; in assay [14], “below the threshold”; in assay [15] it was 5.08; in assay [16], 5.13; in assay [17], 5.31; in [18], 4.93. Also, the negative-log Kd (pKd) in assay [19] is 4.9; in [20], “below the threshold”; in assay [21], 4.76; in assay [22] it was 3.54; in assay [23], “below the threshold”; in assay [24] it was “below the threshold”.
As for DHLGGGGESM [TNRC6A, Q8NDV7], the pKd result in assay [1], in [2], in [3], in assay [4], in assay [5] and in assay [6] was “below the threshold” in each case. Further, the negative logarithm of the Kd (pKd) entry in [7], in [8], in assay [9], in assay [10], in [11] and in assay [12] was “below the threshold” each time. Further, the negative logarithm of the Kd (pKd) entry in assay [13] was “below the threshold”; in assay [14] it was “below the threshold”; in [15], “below the threshold”; in assay [16] it was “below the threshold”; in assay [17], 3.62; in assay [18] it was “below the threshold”. In addition, the pKd result in [19] is “below the threshold”; in assay [20] it was “below the threshold”; in assay [21], 3.7; in assay [22], “below the threshold”; in [23], “below the threshold”; in assay [24] it was “below the threshold”.
Turning to IPGKEFDTPL [PLCB1, Q9NQ66], the pKd result in [1] was “below the threshold”; in [2], “below the threshold”; in [3], 3.57; in assay [4], 4.33; in assay [5], “below the threshold”; in [6], “below the threshold”. Besides, the negative logarithm of the Kd (pKd) is 4.03 in assay [7]; 5.17 in assay [8]; “below the threshold” in assay [9]; “below the threshold” in assay [10]; “below the threshold” in assay [11]; “below the threshold” in assay [12]. Moreover, the pKd in assay [13] was 4.31; in assay [14], “below the threshold”; in [15], “below the threshold”; in assay [16], 4.33; in [17], 4.95; in assay [18], “below the threshold”. Besides, the pKd in assay [19] was 3.8; in assay [20], “below the threshold”; in assay [21] it was 4.82; in [22], “below the threshold”; in [23] it was “below the threshold”; in assay [24], 3.55.

The values above are taken from PMC9482650, “Quantitative fragmentomics allow affinity mapping of interactomes” (Nature Communications, 2022).
